Assay in all cases: SPR
Test [1] addresses T1, FcgRIa (human, UniProt P12314).
T1 chain: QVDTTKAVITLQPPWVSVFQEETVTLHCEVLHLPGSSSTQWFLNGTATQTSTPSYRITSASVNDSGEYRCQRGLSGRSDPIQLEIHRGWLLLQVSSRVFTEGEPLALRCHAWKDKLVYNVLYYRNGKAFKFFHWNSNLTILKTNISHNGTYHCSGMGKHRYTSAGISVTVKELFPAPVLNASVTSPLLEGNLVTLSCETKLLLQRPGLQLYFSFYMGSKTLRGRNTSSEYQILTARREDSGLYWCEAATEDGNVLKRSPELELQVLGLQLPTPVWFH

Test [2] concerns the target T2, FcgRIIb (human, UniProt P31994).
T2 chain: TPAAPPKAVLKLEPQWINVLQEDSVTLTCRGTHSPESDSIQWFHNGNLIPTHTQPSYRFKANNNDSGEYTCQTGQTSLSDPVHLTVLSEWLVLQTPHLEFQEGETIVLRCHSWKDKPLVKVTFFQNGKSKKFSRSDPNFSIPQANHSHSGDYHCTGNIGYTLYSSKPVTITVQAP

Test [3] addresses FcgRIIIa F (human, UniProt P08637).
Test [4] addresses FcgRIIIa V (human, UniProt P08637).
Test [5] concerns the target T3, FcgRIIa R (human, UniProt P12318).
T3 chain: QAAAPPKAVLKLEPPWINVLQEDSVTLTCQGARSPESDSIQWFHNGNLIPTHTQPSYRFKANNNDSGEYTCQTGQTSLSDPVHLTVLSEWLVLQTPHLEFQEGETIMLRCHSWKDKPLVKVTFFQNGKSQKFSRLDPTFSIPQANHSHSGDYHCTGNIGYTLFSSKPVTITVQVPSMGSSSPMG

In test [6] the target is T4, FcgRIIa H (human, UniProt P12318).
T4 chain: T3 chain with R134H

Substitutions are numbered along the chain they refer to.

FcgRIIIa F, sequence (P08637 17-208): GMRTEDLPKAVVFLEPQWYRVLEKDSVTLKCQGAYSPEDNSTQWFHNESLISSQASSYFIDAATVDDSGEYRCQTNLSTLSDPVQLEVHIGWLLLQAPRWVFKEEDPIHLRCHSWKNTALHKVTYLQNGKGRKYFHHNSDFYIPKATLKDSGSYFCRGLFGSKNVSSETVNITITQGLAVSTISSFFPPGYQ
FcgRIIIa V, sequence (P08637 17-208 F176V): as the sequence (P08637 17-208) above, with F160V counted along it

B1: H240-Kn233/H240-Hl068/L73-k0 (antibody)
chain 1: QDQLVQSGAEVKKPGASVKVSCKASGFNIKDTYIQWVRQAPGQGLEWMGRIDPLRKQTKYREKFEGRVTITADTSTNTAYMELSSLRSEDTAVYYCVRSGREFDYWGQGTLVTVSSASTKGPSVFPLAPSSKSTSGGTAALGCLVKDYFPEPVTVSWNSGALTSGVHTFPAVLQSSGLYSLSSVVTVPSSSLGTQTYICNVNHKPSNTKVDKKVEPKSCDKTHTCPPCPAPEEYWGPIVFLFPPKPKDTLMISRTPEVTCVVVDVSDEDPEVKFNWYVDGVEVHNAKTKPREEQYNATYRVVSVLTVLHQDWLNGKEYKCKVSNKDLPAPIEKTISKAKGQPREPQVCTLPPSRDELTKNQVSLWCLVKGFYPSDIAVEWESNGQPENNYKTTPPVLDSDGSFFLYSKLTVDKSRWQQGNVFSCSVMHEALHNHYTQKSLSLSP
chain 2: QDQLVQSGAEVKKPGASVKVSCKASGFNIKDTYIQWVRQAPGQGLEWMGRIDPLRKQTKYREKFEGRVTITADTSTNTAYMELSSLRSEDTAVYYCVRSGREFDYWGQGTLVTVSSASTKGPSVFPLAPSSKSTSGGTAALGCLVKDYFPEPVTVSWNSGALTSGVHTFPAVLQSSGLYSLSSVVTVPSSSLGTQTYICNVNHKPSNTKVDKKVEPKSCDKTHTCPPCPAPELLGGPSVFLFPPKPKDTLMISRTPEVTCVVVDVSHEEPEVKFNWYVDGVEVHNAKTKPREEQYNSTYRVVSVLTVLHQDWLNGKEYKCKVSNDALPKPIEETISKAKGQPREPQVYTLPPSRCELTKNQVSLSCAVKGFYPSDIAVEWESNGQPENNYKTTPPVLDSDGSFFLVSKLTVDKSRWQQGNVFSCSVMHEALHNHYTQKSLSLSP
chain 3: DIQMTQSPSSLSASVGDRVTITCRASQDIHKYIAWYQQKPGQAPRLLIQYTSTLQPGVPSRFSGSGSGTDYTFTISSLQPEDIATYYCLQYEQLRTFGGGTKVEIKRTVAAPSVFIFPPSDEQLKSGTASVVCLLNNFYPREAKVQWKVDNALQSGNSQESVTEQDSKDSTYSLSSTLTLSKADYEKHKVYACEVTHQGLSSPVTKSFNRGEC
Broadly, the Kd is the concentration at which binding is half-saturated. Read a low Kd as a tighter complex. For the molecule B1, the Kd in test [1] was determined as 0.18 nM; in test [2], 210 nM; in test [3], 2.5 nM; in test [4] it was 0.75 nM; in test [5], 21 nM; in test [6] it was 66 nM.

B2: H240-Kn235/H240-Hl068/L73-k0 (antibody)
chain 1: B1 chain 1 with E233F
chain 2: B1 chain 2
chain 3: B1 chain 3
Turning to B2, the Kd in test [1] came to 0.15 nM; in test [2] it was 220 nM; in test [3], 2.7 nM; in test [4], 0.87 nM; in test [5], 23 nM; in test [6], 37 nM.

B3: H240-Kn201/H240-Hl068/L73-k0 (antibody)
chain 1: B1 chain 1 with E233F, Y234Q, I238M, D269E, D326A
chain 2: B1 chain 2
chain 3: B1 chain 3
Consider B3, for which the Kd in test [1] stood at 0.26 nM; in test [2], 3900 nM; in test [3], 5.3 nM; in test [4], 1.2 nM; in test [5], 360 nM; in test [6] it was 56 nM.

B4: H240-Kn200/H240-Hl210/L73-k0 (antibody)
chain 1: B1 chain 1 with E233S, Y234Q, I238M, D269E, D326A
chain 2: B1 chain 2 with K329A
chain 3: B1 chain 3
Take B4: the Kd came to 0.18 nM in test [1]; 2600 nM in test [2]; 5.7 nM in test [3]; 1.2 nM in test [4]; 480 nM in test [5]; 170 nM in test [6].

B5: H240-Kn232/H240-Hl068/L73-k0 (antibody)
chain 1: B1 chain 1 with E233L
chain 2: B1 chain 2
chain 3: B1 chain 3
With B5, the Kd was 0.23 nM in test [1]; 190 nM in test [2]; 3 nM in test [3]; 0.86 nM in test [4]; 17 nM in test [5]; 25 nM in test [6].

B6: H240-Kn202/H240-Hl210/L73-k0 (antibody)
chain 1: B1 chain 1 with Y234Q, I238M, D269E, D326A
chain 2: B1 chain 2 with K329A
chain 3: B1 chain 3
Regarding B6, the Kd in test [1] is 0.17 nM; in test [2] it was 2200 nM; in test [3], 3.3 nM; in test [4], 0.53 nM; in test [5], 320 nM; in test [6], 230 nM.

B7: H240-Kn226/H240-Hl214/L73-k0 (antibody)
chain 1: B1 chain 1 with E233F, Y234Q, D269E, D326A
chain 2: B1 chain 2 with K329F
chain 3: B1 chain 3
With B7, the Kd in test [1] was found to be 0.089 nM; in test [2], 3400 nM; in test [3] it was 1.9 nM; in test [4] it was 0.77 nM; in test [5] it was 360 nM; in test [6] it was 160 nM.

B8: H240-Kn228/H240-Hl214/L73-k0 (antibody)
chain 1: B1 chain 1 with E233D, Y234Q, D269E, D326A
chain 2: B1 chain 2 with K329F
chain 3: B1 chain 3
For B8, the Kd was 0.12 nM in test [1]; 2300 nM in test [2]; 1.9 nM in test [3]; 0.77 nM in test [4]; 320 nM in test [5]; 270 nM in test [6].

B9: H240-Kn231/H240-Hl068/L73-k0 (antibody)
chain 1: B1 chain 1 with E233I
chain 2: B1 chain 2
chain 3: B1 chain 3
Consider B9, for which the Kd in test [1] came to 0.18 nM; in test [2] it was 120 nM; in test [3] it was 2.9 nM; in test [4] it was 0.73 nM; in test [5], 8.9 nM; in test [6], 16 nM.

B10: H240-Kn228/H240-Hl210/L73-k0 (antibody)
chain 1: B1 chain 1 with E233D, Y234Q, D269E, D326A
chain 2: B1 chain 2 with K329A
chain 3: B1 chain 3
In the case of B10, the Kd in test [1] was 0.16 nM; in test [2], 1700 nM; in test [3] it was 4.4 nM; in test [4] it was 0.81 nM; in test [5], 200 nM; in test [6], 190 nM.

B11: H240-Kn202/H240-Hl068/L73-k0 (antibody)
chain 1: B1 chain 1 with Y234Q, I238M, D269E, D326A
chain 2: B1 chain 2
chain 3: B1 chain 3
In the case of B11, the Kd was 0.4 nM in test [1]; 1400 nM in test [2]; 2.5 nM in test [3]; 0.66 nM in test [4]; 200 nM in test [5]; 120 nM in test [6].

B12: H240-Kn203/H240-Hl210/L73-k0 (antibody)
chain 1: B1 chain 1 with E233F, I238M
chain 2: B1 chain 2 with K329A
chain 3: B1 chain 3
Consider B12, for which the Kd in test [1] was determined as 0.16 nM; in test [2], 300 nM; in test [3], 3 nM; in test [4] it was 0.45 nM; in test [5], 56 nM; in test [6] it was 93 nM.

B13: H240-Kn200/H240-Hl068/L73-k0 (antibody)
chain 1: B1 chain 1 with E233S, Y234Q, I238M, D269E, D326A
chain 2: B1 chain 2
chain 3: B1 chain 3
B13: the Kd in test [1] came to 0.5 nM; in test [2], 2800 nM; in test [3], 4.6 nM; in test [4], 1.2 nM; in test [5], 280 nM; in test [6] it was 69 nM.

B14: H240-Kn208/H240-Hl214/L73-k0 (antibody)
chain 1: B1 chain 1 with E233D, Y234Q, I238M, D269E, D326A
chain 2: B1 chain 2 with K329F
chain 3: B1 chain 3
As to B14, the Kd in test [1] came out at 0.053 nM; in test [2] it was 4500 nM; in test [3], 3 nM; in test [4], 0.9 nM; in test [5], 720 nM; in test [6], 420 nM.

B15: H240-Kn198/H240-Hl210/L73-k0 (antibody)
chain 1: B1 chain 1 with E233L, Y234Q, I238M, D269E, D326A
chain 2: B1 chain 2 with K329A
chain 3: B1 chain 3
B15: the Kd in test [1] is 0.047 nM; in test [2], 3100 nM; in test [3] it was 4.9 nM; in test [4], 1 nM; in test [5], 480 nM; in test [6] it was 120 nM.
